These results are taken from IntAct's records for PubMed 15890343.

This assay deals with otx2_mouse Otx2 (UniProt P80206).
Chain of otx2_mouse Otx2 (P80206 whole entry): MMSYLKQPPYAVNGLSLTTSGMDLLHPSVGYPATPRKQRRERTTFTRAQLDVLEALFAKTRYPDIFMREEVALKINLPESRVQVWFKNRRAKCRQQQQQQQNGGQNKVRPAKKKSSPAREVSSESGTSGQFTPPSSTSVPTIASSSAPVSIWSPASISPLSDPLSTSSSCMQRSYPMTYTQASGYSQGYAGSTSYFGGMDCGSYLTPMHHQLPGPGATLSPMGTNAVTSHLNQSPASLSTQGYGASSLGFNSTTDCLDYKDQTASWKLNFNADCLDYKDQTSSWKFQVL

Chain of Diencephalon/mesencephalon homeobox protein 1 (Mus musculus), Q91ZK4 R122W (Q91ZK4 whole entry R122W): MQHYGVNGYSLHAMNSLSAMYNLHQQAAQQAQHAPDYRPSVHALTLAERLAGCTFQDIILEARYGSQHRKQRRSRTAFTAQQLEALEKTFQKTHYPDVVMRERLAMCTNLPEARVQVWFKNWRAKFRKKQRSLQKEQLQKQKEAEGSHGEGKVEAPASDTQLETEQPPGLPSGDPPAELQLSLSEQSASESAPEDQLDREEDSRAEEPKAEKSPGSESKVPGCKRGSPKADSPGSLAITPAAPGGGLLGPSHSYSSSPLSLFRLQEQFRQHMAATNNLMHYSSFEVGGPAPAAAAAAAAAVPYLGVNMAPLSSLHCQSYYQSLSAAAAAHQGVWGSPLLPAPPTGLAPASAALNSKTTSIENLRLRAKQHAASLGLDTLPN

As to “Diencephalon/mesencephalon homeobox protein 1 (Mus musculus), Q91ZK4 R122W”, the “effect of a mutation on the interaction” value is given as “disrupting interaction”.
